Test results as given in patent US20210388105A1 (ELPISCIENCE SUZHOU BIOPHARMA, published 2021).

Legend:
[1] = molecular target: T1, ENTPD5 protein (Homo sapiens (Human), UniProt O75356 25-428); experiment: ELISA on coated ENTPD5 protein, anti-hIgG-HRP, OD450
T1 construct: also called CD39L4; ENTPDase 5
T1 sequence: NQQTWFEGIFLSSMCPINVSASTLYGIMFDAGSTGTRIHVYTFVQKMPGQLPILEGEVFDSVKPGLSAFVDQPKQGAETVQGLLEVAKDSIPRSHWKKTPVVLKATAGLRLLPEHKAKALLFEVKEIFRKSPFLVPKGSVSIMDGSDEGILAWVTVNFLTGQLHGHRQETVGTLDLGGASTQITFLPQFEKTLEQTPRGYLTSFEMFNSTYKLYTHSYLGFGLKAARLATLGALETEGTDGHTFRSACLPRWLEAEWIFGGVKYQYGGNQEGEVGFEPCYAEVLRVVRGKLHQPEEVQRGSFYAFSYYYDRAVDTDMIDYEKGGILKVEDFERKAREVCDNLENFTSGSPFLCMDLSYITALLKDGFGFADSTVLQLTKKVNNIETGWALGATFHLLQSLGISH
Procedure: Binding specificity of the purified humanized antibody hu23.H5L5 against ENTPDase family members was detected by ELISA assay. Briefly, ENTPD1 (i.e. CD39) and ENTPD 2/3/5/6 proteins were coated on 96-well ELISA plates at 4° C. overnight, next day the ELISA plates were washed and blocked using blocking buffer (1% BSA in PBS with 0.05% Tween20) 200 μL/well for 2 hours. Then hu23.H5L5 gradients were duplicated into the wells and stained with anti-hIgG-HRP. After plate washing, the plates were developed with TMB substrate and stopped by 2N HCl. The OD450 were recorded using plate reader and platted by Graphpad Prism.

[2] = molecular target: T2, human CD39 (full length, on cells) (human, UniProt P49961 1-510); experiment: FACS, CHOK1-hCD39 cells
T2 construct: Recombinant on CHOK1-hCD39 cells or natural on SK-MEL-28, SK-MEL-5 and MOLP-8 cells; the cell line is named under assay; also called hCD39; ENTPD1
T2 sequence: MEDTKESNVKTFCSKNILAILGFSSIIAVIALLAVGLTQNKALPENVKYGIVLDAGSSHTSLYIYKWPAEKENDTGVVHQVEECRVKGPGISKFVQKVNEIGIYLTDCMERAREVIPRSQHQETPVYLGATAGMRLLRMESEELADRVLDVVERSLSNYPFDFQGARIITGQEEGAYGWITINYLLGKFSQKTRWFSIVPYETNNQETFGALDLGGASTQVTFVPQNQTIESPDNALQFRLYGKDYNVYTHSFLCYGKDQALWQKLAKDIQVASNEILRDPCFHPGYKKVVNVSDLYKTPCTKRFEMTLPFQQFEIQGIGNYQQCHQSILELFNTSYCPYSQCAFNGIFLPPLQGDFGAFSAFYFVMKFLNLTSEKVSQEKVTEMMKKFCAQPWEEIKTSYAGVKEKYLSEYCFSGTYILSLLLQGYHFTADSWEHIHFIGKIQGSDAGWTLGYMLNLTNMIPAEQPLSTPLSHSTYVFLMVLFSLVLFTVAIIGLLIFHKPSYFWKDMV
Text: FACS were used to determine binding of the antibodies to cell lines expressing CD39 naturally (SK-MEL-28) or recombinantly (CHOK1-hCD39, CHOK1-cynoCD39, and CHOK1-mCD39), or with cells lacking CD39 expression (CHOK1-blank) as a negative control.
CHOK1-hCD39, CHOK1-cCD39, CHOK1-mCD39 and CHOK1-blank cells were maintained in culture medium according to ATCC procedure. Cells were collected and re-suspended in blocking buffer at a density of 3×10⁶ cells/ml. Cells were transferred to 96 well FACS plates at 100 μl/well (3×10⁵ cells/well), the plates were centrifuged and washed twice with FACS buffer (PBS, 1% FBS, 0.05% Tween-20). 4-folds serial dilution of anti-CD39 antibodies were prepared in FACS buffer starting from 30 μg/ml. Reference antibody 9-8B and mouse/human control IgG were used as positive and negative controls, respectively. Cells were re-suspended in 100 μL/well diluted antibodies, and the plates were incubated at 4° C. for 60 min. […] The plates were washed with FACS buffer, and cells were re-suspended in 100 μL/well of PBS. Cells were then analyzed with FACSVerse™ and mean fluorescence intensity were determined. Full binding curves were generated on the CD39 expressing cells by testing a range of antibody concentrations. Apparent affinity was determined for each antibody using Prism software.

[3] = molecular target: T3, human CD39 (protein; form not stated) (human, UniProt P49961 38-478, limits assumed); experiment: Octet (BLI)
T3 construct: also called ENTPD1; ENTPDase 1
T3 sequence: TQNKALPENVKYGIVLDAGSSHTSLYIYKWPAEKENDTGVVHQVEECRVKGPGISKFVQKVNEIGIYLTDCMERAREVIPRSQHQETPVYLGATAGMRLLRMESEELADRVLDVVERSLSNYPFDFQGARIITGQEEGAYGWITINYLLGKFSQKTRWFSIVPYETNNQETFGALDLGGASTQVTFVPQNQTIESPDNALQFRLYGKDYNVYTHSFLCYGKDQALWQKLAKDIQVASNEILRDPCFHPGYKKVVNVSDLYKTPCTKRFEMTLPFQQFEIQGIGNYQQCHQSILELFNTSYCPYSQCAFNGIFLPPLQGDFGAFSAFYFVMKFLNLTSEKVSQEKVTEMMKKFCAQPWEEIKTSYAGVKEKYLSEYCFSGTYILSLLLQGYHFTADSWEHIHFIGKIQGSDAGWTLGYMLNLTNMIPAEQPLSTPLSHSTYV

Binder	binding result [1]	EC50 [2]	Kd [3]
hu23.H5L5 (antibody, V domains shown, humanized c23) VH: QVQLVQSGAEVKKPGASVKVSCKASGYNLKDTFLHWVRQAPGQGLEWMGRIDPANGNIKYDPKFQGRVTITADTSANTAYMELISLRSEDTAVYYCANSPYYYGSGYRIFDVWGQGTTVTVSS VL: QIVLTQSPATLSLSPGERATLSCSAFSSVNYMHWYQQKPGQAPRLLIYTTSNLASGIPTRFSGSGSGTSYTLTISSLEPEDFAVYYCQQRSTYPFTFGQGTKLEIK	no binding (tested: about 66 nM)		
Antibody 9-8B (antibody, V domains shown) VH: QIQLVQSGPELKKPGETVKISCKASGYTFTHYGMNWVKQAPGKGLKWMGWINTYTGELTYADDFKGRFAFSLETSASTAYLQINNLKNEDTATYFCARRAYYRYDYVMDYWGQGTSVTVSS VL: DIVMTQSQKFMSTSVGDRVSVTCKASHNVGTNVAWYQQKPGQSPKALIYSASYRYSGVPGRFTGSGSGTDFTLTISNVQSEDLAEYFCHQYNNYPYTFGGGTKLEIK		1.7 nM	
mAb14 (antibody, V domains shown, mouse hybridoma antibody) VH: EVKLEESGGGLVQPGGSMKLSCVASGFTFSKYWMNWVRQSPEKGLEWVAEIRLKSNKYGTHYAESVKGRFTISRDDSKNNVYLQMNNLRPEDTGIYYCTTQLDLYWFFDVWGAGTTVTVSS VL: DIVMTQSPAILSVTPGDRVSLSCRASQSISDYLHWYQQKSHESPRLLIKYASQSISGIPSRFSGSGSGSNFTLSINSVEPEDVGVYFCQNGHSLPLTFGAGTKLELR		2.5 nM	0.24 nM
